Source: patent US20080274954

Target: Cdc42 (SEQ ID NO: 12) expressed as an N-terminal 3x FLAG-tagged protein

B1: sh04009DH/PH protein (SEQ ID NO: 6) with FLAG-tag (3x) at the C-terminal (protein)
chain: MEELSENSSSTPSEEQDEEASQSRHRHCENKQQMRTNVIREIMDTERVYIKHLRDICEGYIRQCRKHTGMFTVAQLATIFGNIEDIYKFQRKFLKDLEKQYNKEEPHLSEIGSCFLQNQEGFAIYSEYCNNHPGACLELANLMKQGKYRHFFEACRLLQQMIDIAIDGFLLTPVQKICKYPLQLAELLKYTTQEHGDYSNIKAAYEAMKNVACLINERKRKLESIDKIARWQVSIVGWEGLDILDRSSELIHSGELTKITKQGKSQQRTFFLFDHQLVSCKKDLLRRDMLYYKGRLDMDEMELVDLGDGRDKDCNLSVKNAFKLVSRTTDEVYLFCAKKQEDKARWLQACADERRRVQEDKEMGMEISENQKKLAMLNAQKAGHGKSKGYNRCPVAPPHQGLHPIHQRHITMPTSVPQQQVFGLAEPKRKSSLFWHTFNRLTPFRK
B1 was tested, and the “effector pull-down assay: amount of active (GTP-bound) Cdc42 bound to the PAK-1 effector bead, Western blot with anti-FLAG antibody” value was “In the cell lysate (lane 4 in FIG. 2) prepared from the cells in which the sh04009DH/PH protein was co-expressed with Cdc42, the band was detected more strongly that in the cell lysate (lane 2 in FIG. 2) prepared from the cells in which only Cdc42 was expressed”.
